Results from article PMC3795039.

Tests used:
GST-NUP153C (human) = GST-NUP153C (human) (UniProt P49790); assay: pull-down; 0.47 µM GST-NUP153C pre-bound to glutathione-sepharose beads, 0.8 µM his-tagged IN, PD buffer (150 mM NaCl, 25 mM Tris-HCl pH 7.4, 5 mM MgCl2, 5 mM DTT, 0.1% NP-40), BSA 5 µg, 2 h 4°C; Coomassie and anti-his blot
[1] = target: his-tagged HIV-1 CAN Q63A/Q67A (HIV-1 (NL4-3)); assay: pull-down; Ni-NTA beads, 20 µM his-tagged CA or CAN, 0.5 µM purified NUP153C, 25 mM Tris-HCl pH 8.0, 150 mM NaCl, 0.1% NP-40, 1 h room temperature; Coomassie or SYPRO Ruby stain
[2] = target: full length his-tagged wild-type HIV-1 CA (HIV-1 (NL4-3)); assay: as above
[3] = target: HIV-1 CA-NC fusion protein assembled into tube-like complexes (HIV-1); assay: co-sedimentation; competition: 4 µM purified WT or mutant NUP153C added to 0.8 µM assembled CA-NC and CPSF6-HA 293T extract; read-out is CPSF6 in the pellet
[4] = target: HIV-1 CA-NC fusion protein assembled into tube-like complexes (HIV-1); assay: co-sedimentation; purified tag-free NUP153C or GST incubated with assembled HIV-1 CA-NC complexes, pelleted through a sucrose cushion; Coomassie stain
[5] = target: T1, his-tagged HIV-1 CA N-terminal domain (CAN) (HIV-1 (NL4-3)), P12493; assay: pull-down; Ni-NTA beads, 20 µM his-tagged CA or CAN, 0.5 µM purified NUP153C, 25 mM Tris-HCl pH 8.0, 150 mM NaCl, 0.1% NP-40, 1 h room temperature; Coomassie or SYPRO Ruby stain; settings: remark: other sources report otherwise
[6] = target: T1, his-tagged HIV-1 CA N-terminal domain …; assay: pull-down; saturation curves: 3 µl Ni-NTA beads, 0.5 µM purified WT or mutant NUP153C, HIV-1 CAN from 2 µM to 200 µM in half-log steps, 150 mM NaCl, 25 mM Tris-HCl pH 8.0, 0.1% NP-40; percent bound by SYPRO Ruby; one-site saturation fit, Kd at half-maximal binding; settings: remark: other sources report otherwise

his-tagged FIV integrase (IN) (enzyme)
percent of input pulled down (GST-NUP153C (human)): 5.55%

recombinant tag-free NUP153C (residues 896–1475) (from UniProt P49790-1 896-1475) (domain or fragment)
fold decrease of binding against WT CAN [1]: 1.3 fold
percent of input pulled down [2]: 30%
fold decrease of CPSF6 binding to CA-NC with 4 µM NUP153C [3]: 7 fold
percent of input recovered in the pellet [4]: 40%

his-tagged HIV-1 integrase (IN) (enzyme)
percent of input pulled down (GST-NUP153C (human)): 0.85%

B1: recombinant tag-free NUP153C (residues 896–1475), P49790-1 896-1475 (domain or fragment)
chain: NSAASSSFKFGVSSSSSGPSQTLTSTGNFKFGDQGGFKIGVSSDSGSINPMSEGFKFSKPIGDFKFGVSSESKPEEVKKDSKNDNFKFGLSSGLSNPVSLTPFQFGVSNLGQEEKKEELPKSSSAGFSFGTGVINSTPAPANTIVTSENKSSFNLGTIETKSASVAPFTCKTSEAKKEEMPATKGGFSFGNVEPASLPSASVFVLGRTEEKQQEPVTSTSLVFGKKADNEEPKCQPVFSFGNSEQTKDENSSKSTFSFSMTKPSEKESEQPAKATFAFGAQTSTTADQGAAKPVFSFLNNSSSSSSTPATSAGGGIFGSSTSSSNPPVATFVFGQSSNPVSSSAFGNTAESSTSQSLLFSQDSKLATTSSTGTAVTPFVFGPGASSNNTTTSGFGFGATTTSSSAGSSFVFGTGPSAPSASPAFGANQTPTFGQSQGASQPNPPGFGSISSSTALFPTGSQPAPPTFGTVSSSSQPPVFGQQPSQSAFGSGTTPNSSSAFQFGSSTTNFNFTNNSPSGVFTFGANSSTPAASAQPSGSGGFPFNQSPAAFTVGSNGKNVFSSSGTSFSGRKIKTAVRRRK
percent of input pulled down [5]: 30%
Kd [6]: 28.3 µM
